Laboratory results as given in PMC3488213 (Nucleic Acids Research, 2012).

Biological target: the molecule itself
Assay: AUC

B1: Y29W mutant of C.Esp1396I (natural protein)
chain: MESFLLSKVSFVIKKIRLEKGMTQEDLAWKSNLDRTYISGIERNSRNLTIKSLELIMKGLEVSDVVFFEMLIKEILKHD
With B1 the “stoichiometry N” value was 2.
